Article PMC12650317 (Biomolecules, 2025)

Experiments:
[1] = target: BVDV NS5A recombinant protein (Bovine viral diarrhea virus 1, RefSeq …, UniProt P19711); test: ELISA; indirect ELISA (i-ELISA); NS3 or NS5A coated on 96-well plates (10 ug/mL for the panning and serum ELISA); OD450 read; nanobody targeting PRRSV as negative control
[2] = target: T1, BVDV NS3 recombinant protein (Bovine viral diarrhea virus 1, RefSeq …); test: as above
T1 chain: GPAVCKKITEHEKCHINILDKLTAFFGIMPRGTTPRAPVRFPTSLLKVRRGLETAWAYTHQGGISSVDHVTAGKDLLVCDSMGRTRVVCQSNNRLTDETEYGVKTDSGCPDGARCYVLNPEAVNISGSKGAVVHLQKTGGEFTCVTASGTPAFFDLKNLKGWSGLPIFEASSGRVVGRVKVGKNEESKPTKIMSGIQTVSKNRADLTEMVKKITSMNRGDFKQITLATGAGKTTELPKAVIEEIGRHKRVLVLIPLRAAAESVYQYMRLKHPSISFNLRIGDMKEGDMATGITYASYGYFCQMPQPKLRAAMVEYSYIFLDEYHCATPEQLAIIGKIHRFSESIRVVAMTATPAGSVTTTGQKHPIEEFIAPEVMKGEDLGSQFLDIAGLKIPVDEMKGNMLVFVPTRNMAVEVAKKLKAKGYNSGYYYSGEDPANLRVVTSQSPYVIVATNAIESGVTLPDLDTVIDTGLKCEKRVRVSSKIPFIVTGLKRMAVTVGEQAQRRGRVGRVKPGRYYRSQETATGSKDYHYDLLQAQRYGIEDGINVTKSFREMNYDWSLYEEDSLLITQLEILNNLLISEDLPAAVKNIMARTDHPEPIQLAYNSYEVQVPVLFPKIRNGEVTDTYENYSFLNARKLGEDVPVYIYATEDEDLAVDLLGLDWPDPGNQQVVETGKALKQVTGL

BVDV NS5A recombinant protein, sequence (P19711 2774-3269): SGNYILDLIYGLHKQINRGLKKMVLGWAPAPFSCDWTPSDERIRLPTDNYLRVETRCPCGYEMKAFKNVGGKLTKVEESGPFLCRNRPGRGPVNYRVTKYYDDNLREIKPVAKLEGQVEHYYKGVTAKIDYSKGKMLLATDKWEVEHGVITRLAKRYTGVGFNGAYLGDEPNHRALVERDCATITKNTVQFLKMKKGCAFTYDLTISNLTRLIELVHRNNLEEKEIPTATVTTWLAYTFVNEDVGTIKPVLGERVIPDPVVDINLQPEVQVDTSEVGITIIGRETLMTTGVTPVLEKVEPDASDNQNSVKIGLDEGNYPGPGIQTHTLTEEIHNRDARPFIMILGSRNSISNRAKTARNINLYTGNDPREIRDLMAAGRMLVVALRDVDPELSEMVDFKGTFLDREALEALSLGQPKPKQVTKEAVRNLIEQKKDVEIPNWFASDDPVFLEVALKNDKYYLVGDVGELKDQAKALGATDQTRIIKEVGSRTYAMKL

B1: Nb10 (VHH)
VHH: QVQLQESGGGLVQPGGSLRLSCAASGETARSGACGWFRQAPGKEREGVASINRYGFRTYADSVKGRFTISTDNAKNTVDLQMSNLRPEDTAAYYCAADSLTFWSAPCCSSTSPGTWGQGTQVTVSS
notes: also called nanobody Nb10
**Q.** Does B1 bind [1]?
**A.** Result: binds

B2: Nb15 (VHH)
VHH: QVQLQESGGGLVQPGGSLRLSCAASGGSLTYYCMAWFRQTPGKEREWVSCISNYGFTINYADSVKGRFSISRDNAKNTVYLAMHIPEPEDTGVYVCADLSFEHLYYCSTAQSEGSEWGQGTQVTVSS
notes: also called nanobody Nb15
**Q.** Does B2 bind [1]?
**A.** Result: binds

B3: Nb11 (VHH)
VHH: QVQLQESGGGSVQPGGSRRLSCEGSGETLGYRRQTWFRQAPGKEREGVSCISSLDDGTYYKDSVKGRFTISRDNANKMVYLQMNSLEPEDTAIYYCAADPERSSYSGPLGSLGYSYWGQGTQVTVSS
notes: also called nanobody Nb11
**Q.** Does B3 bind [1]?
**A.** Result: binds

B4: Nb19 (VHH)
VHH: QVQLQESGGGLVQPGGSLRLSCAASGFTFQTYSMGWVRQAPGKGLEWVSSISGDGSTYYSDSVKGRFTISTDNANTLYLQMNSLKSEDTAVYYCAKERSPADYRNWLMPYWGKGTLVTVSS
notes: also called nanobody Nb19
**Q.** Does B4 bind [2]?
**A.** Result: binds

B5: Nb22 (VHH)
VHH: QVQLQESGGGLVQPGGSLRLSCRASGYTSCMAWFRQAPKEREGVASINSDGSTAYADSVQGRFTISRDNTMNTLYLQMNSLKPEDTAMYYCAAERPSSCLPRNIWVDTNYWGQGTQVTVSS
notes: also called nanobody Nb22
**Q.** Does B5 bind [2]?
**A.** Result: binds
